# Changes are numbered by the printed parent chain.
# T1: Peptide-5 (not fully specified)
# T1 chain: CDRVYIHPFHLK
# T2: Peptide-6b
# T2 chain: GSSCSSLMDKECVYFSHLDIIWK
# T3: Peptide-6a
# T3 chain: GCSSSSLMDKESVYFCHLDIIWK
# T4: Peptide-8 (not fully specified)
# T4 chain: CQLYENKPRRPYILK
# T5: Peptide-3
# T5 chain: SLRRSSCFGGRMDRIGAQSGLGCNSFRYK
# T6: Peptide-13 (not fully specified)
# T6 chain: CRPPGFSPFRK
# B1: C1 (protein)
# chain: YPYDVPDYAYPYDVPDYAYPYDVPDYAGSYDDGICKSSDCIKSAARLIQNMDATTEPCTDFFKYACGGWLKRNVIPETSSRYGNFDILRDELEVVLKDVLQEPKTEDIVAVQKAKALYRSCINESAIDSRGGEPLLKLLPDIYGWPVATENWEQKYGASWTAEKAIAQLNSKYGKKVLINLFVGTDDKNSVNHVIHIDQPRLGLPSRDYYECTGIYKEACTAYVDFMISVARLIRQEERLPIDENQLALEMNKVMELEKEIANATAKPEDRNDPMLLYNKMTLAQIQNNFSLEINGKPFSWLNFTNEIMSTVNISITNEEDVVVYAPEYLTKLKPILTKYSARDLQNLMSWRFIMDLVSSLSRTYKESRNAFRKALYVTTSETATWRRCANYVNGNMMNAVGRLYVEAAFAGESKHVVEDLIAQIREVFIQTLDDLTWMDAETKKRAEEKALAIKERIGYPDDIVSNDNKLNNEYLELNYKEDEYFENIIQNLKFSQSKQLKKLREKVDKDEWISGAAVVNAFYSSGRNQIVFPAGILQPPFFSAQQSNSLNYGGIGMVIGHEITHGFDDNGRNFNKDGDLVDWWTQQSASNFKEQSQCMVYQYGNFSWDLAGGQHLNGINTLGENIADNGGLGQAYRAYQNYIKKNGEEKLLPGLDLNHKQLFFLNFAQVWCGTYRPEYAVNSIKTVVHSPKNFRIIGTLQNSAEFSEAFHCRKNSYMNPEKKCRVW
# B2: D10 (protein)
# chain: B1 chain with S206R, F226L, A266S, D356G, D569M, G572V, F575P, G579D, G624Q, V688D
# B3: D2 (protein)
# chain: B1 chain with D356G, D569F, F575P, G579D, V688D
# B4: D3 (protein)
# chain: B1 chain with D569F, F575P, G579D, G624Q, V688D
# B5: C2 (protein)
# chain: B1 chain with S206R, R207G, F226L, D569F, F575P, G579D, V688D
# B6: D9 (protein)
# chain: B1 chain with S206R, F226L, A266S, D356G, D569M, G572V, F575P, G579D, V688D
# B7: D1 (protein)
# chain: B1 chain with A266S, D569F, F575P, G579D, V688D
# B8: D8 (protein)
# chain: B1 chain with S206R, F226L, D569M, G572V, F575P, G579D, G624Q, V688D
# B9: D4 (protein)
# chain: B1 chain with A266S, D356G, D569F, F575P, G579D, V688D
# B10: C5 (protein)
# chain: B1 chain with S206R, R207G, D569F, F575P, G579D, V688D
# B11: D5 (protein)
# chain: B1 chain with A266S, D356G, D569F, F575P, G579D, G624Q, V688D
# B12: C4 (protein)
# chain: B1 chain with S206R, R207G, D569F, G572V, G579V, V688D
# B13: C3 (protein)
# chain: B1 chain with S206R, R207G, F226L, M398E, D569F, F575P, G579D, V688D
# B14: D6 (protein)
# chain: B1 chain with S206R, F226L, A266S, D569M, G572V, F575P, G579D, V688D
# B15: D7 (protein)
# chain: B1 chain with S206R, F226L, D356G, D569M, G572V, F575P, G579D, V688D
# Target: Peptide-4
Protein,activity relative to G399V/G714K (B1) [fold],kapp ratio vs G399V/G714K (B1) [fold]
B1,1.1,0.51
B2,0.84,
B3,0.9,
B4,1.04,
B5,,0.72
B6,0.86,
B7,0.95,
B8,0.95,
B9,0.91,
B10,,0.74
B11,0.9,
B12,,0.44
B13,,0.79
B14,0.89,
B15,0.91,

# Target: T1, Peptide-5
Protein,activity relative to G399V/G714K (B1) [fold],kapp ratio vs G399V/G714K (B1) [fold]
B1,0.86,1.02
B2,0.08,
B3,0.08,
B4,0.1,
B5,,0.19
B6,0.08,
B7,0.08,
B8,0.09,
B9,0.08,
B10,,0.22
B11,0.08,
B12,,0.27
B13,,0.15
B14,0.08,
B15,0.09,

# Target: Peptide-7
Protein,activity relative to G399V/G714K (B1) [fold],kapp ratio vs G399V/G714K (B1) [fold]
B1,0.96,0.9
B2,0.33,
B3,0.4,
B4,0.95,
B5,,0.47
B6,0.43,
B7,0.61,
B8,0.82,
B9,0.51,
B10,,0.72
B11,0.9,
B12,,0.44
B13,,0.64
B14,0.68,
B15,0.66,

# Target: T2, Peptide-6b
row,Protein,kapp ratio vs G399V/G714K (B1) [fold]
1,B1,0.76
2,B5,0.1
3,B10,0.18
4,B12,0.29
5,B13,0.09

# Target: Peptide-2
Protein,activity relative to G399V/G714K (B1) [fold],kapp ratio vs G399V/G714K (B1) [fold]
B1,1.12,1.23
B2,1.26,
B3,1.06,
B4,3.42,
B5,,0.88
B6,1.11,
B7,1.24,
B8,2.66,
B9,2.71,
B10,,1.92
B11,3.37,
B12,,2.43
B13,,0.81
B14,2.37,
B15,1.18,

# Target: Peptide-1
Protein,activity relative to G399V/G714K (B1) [fold],kapp ratio vs G399V/G714K (B1) [fold]
B1,1.14,1.28
B2,1.33,
B3,0.83,
B4,3.11,
B5,,1.06
B6,1.07,
B7,1.11,
B8,2.58,
B9,2.43,
B10,,1.95
B11,2.94,
B12,,2.41
B13,,0.86
B14,2.24,
B15,0.88,

# Target: T3, Peptide-6a
Protein,activity relative to G399V/G714K (B1) [fold],kapp ratio vs G399V/G714K (B1) [fold]
B1,0.76,0.97
B2,0.08,
B3,0.08,
B4,0.47,
B5,,0.14
B6,0.06,
B7,0.12,
B8,0.44,
B9,0.28,
B10,,0.23
B11,0.35,
B12,,0.37
B13,,0.18
B14,0.35,
B15,0.13,

# Target: T4, Peptide-8
row,Protein,kapp ratio vs G399V/G714K (B1) [fold]
1,B1,0.62
2,B5,0.34
3,B10,0.41
4,B12,0.4
5,B13,0.37

# Target: T5, Peptide-3
row,Protein,kapp ratio vs G399V/G714K (B1) [fold]
1,B1,0.36
2,B5,0.24
3,B10,0.24
4,B12,0.24
5,B13,0.24

# Target: T6, Peptide-13
row,Protein,kapp ratio vs G399V/G714K (B1) [fold]
1,B1,0.52
2,B5,0.68
3,B10,0.63
4,B12,0.62
5,B13,0.85
